In the nanobody polyreactivity screen of Harvey et al. (2022):

test: yeast display, Sf9 membrane polyspecificity reagent, FACS + sequencing; frameworks hold sequencing errors
Summary of the method: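 Nanobodies came from a synthetic yeast display library in Saccharomyces cerevisiae BJ5465, induced with galactose for 36–48 hours and stained for 1 hour at 4 °C with 10% biotinylated, detergent-solubilized Sf9 membrane reagent. Cells were enriched on streptavidin microbeads and then FACS-sorted, with low and high (top ~1%) gates set on anti-HA fluorescence for expression and streptavidin fluorescence for reagent binding. Each polyreactivity label reflects the gate a clone came from. Genes were amplified by colony PCR, sequenced by MiSeq 2 × 250 and filtered by CDR length.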

Sequence | polyreactivity (PSR sort gate)
QVQLVESGGGLVQAGGSLRLSCAASGRIFTHNTMGWYRQAPGKERELVAAISSSGGSTYYADSVKGRFTISRDNAKNTVYLQMNSLKPDDTAVYYCNTLIKGRWIVVGYGYPGYDYWGQGTQVTVSS | high polyreactivity
QVQLVESGGGLVQAGGSLRLSCADSGRTFGPYAMGWYRQAPGKERELVAAITSSGGSTYYADSVKGRFTISRDNAKNTVSLQMNSLKPEDTAVYYCNKLYWRQSQDYDYWGQGTQVTVSS | low polyreactivity
QVQLVESGGGLVQAGGSLRLSCAASGRIFRDYTMGWYRTAPGKERELVAAITSGGSTYYADSVKGRFTISRDTAKNTVYLQMNSLKPEDTAVYYCNADGYVPGVDYWGLGTQVTVSS | low polyreactivity
QVQLVESGGGLDQAGGSLRLSSAASGRTVDIYAMGWYRQAPWKEWELVAAITRGGSTYYADSVKGRFTISRDNAKNTVYLQMNCLIPEDTAVYYCSAKLGTGYRRWYDYWGQGTQVTVSS | high polyreactivity
QVQLVESGGGLVQAGGSLRLSCAASGRIFAGYAMGWYRQAPGKERELVAAISDGGTTNYADSVKGRFTISRDNAKNTVYLQMNSLKPEDTAVYYCAAKSRTYQSYYYWGQGTQVTVSS | low polyreactivity
QVQLVESGGGLVQAGGSLRLSCAASGRISPNNVMGWYRQAPGKERELVAVISRSGDRTNYADSVKGRFTISRDNAKNTVYLQMNSLKPEDTAVYYCAARVVADKYRYDYWGQGTQVTVSS | high polyreactivity
QVQLEESGGGLVQAGGSLRISSAASGSTLGSNAMGWYRQAPGKEMELVAAITWSGGTTYYADSVKGRFTIARDNPKNTVSLQMNSLKPEDTAVYYCATGQSVIYRYEYWGQGTQVTVSS | low polyreactivity
QVQHVESGGGLVQAGGSLRLSCAASGLTSVINAMGWYRQAPGKERELVAAMTNGGSTSYADSVKGRFTISRDNAKNPVYLQMNSLKPEDTAVYYWAADIVSSTDYPFDYWGQGTQVTVSS | low polyreactivity
QVQLVESGGGLVQAGGSLRLSCAASGITFYSNAMGWYRQAPGKERELVAAISYRGGSTYYADSVKGRFTISRDNAKNTVYLQMNSLKPEDTAVYYCNKEVDWGWGRISYDSWGQGTQVTVSS | low polyreactivity
QVQLVESGGGLVQAGGSLRLSCAASGRTFSYYTMGRYRQAPGKERELVARISNRGTNTYYADSVKGRFTISRDHAKNSVNLQMNSLKTEDTAVFYCAKYYYTSIVGYDYWGQGTQVTVSS | low polyreactivity
QVQLVESGGGLVQAGGSLRLSCAASGNIFYYNAMGWSRQGPGKEMELVAAISSGGSTNYADSVKGRFTISRDNAKNTVYLQMNSLKPEDTAVYYCAANYVTIGSGYYGYDYWGQGTQVTVSS | low polyreactivity
QVHLVESGGGLVQAGGSLRLSCAASGSTFFQYAMGWYRQAPGKERELVAAISSRGGRTYYADSVKGRFTISRDNAKNTVYLQMNRLKPEDTAVYYCATNRSVSYPYDGYYYWGQGTQVTVSS | high polyreactivity
QVQLVESAGGLVQAGGSLRLSCAASGRTFGGYAMGWYRQAPGKERELVASITSGGSTYYADSVKGRFTISRDNAKNTVYLEMNSLKPEDTAVYYCAADTYFETSTRAIPSNDYWGQGTQVTVSS | low polyreactivity
QVQLVESGGGLVQAGGSLRLSCAASGITFHYKAMGWYIQAPGKERELVATIRRGGITKYADSVKGRFTISRDNAKNTVYLQMNSLKPEDTAVYYCAAGYYSHGAWFDHWGEGTQVTVSS | low polyreactivity
QVQLVESGGGLVQAGGSLRLSCAASGRTFYKNTMGWYRQAPGKERELVAPITRRGGTPYYADSVKGRFTISRDNAKNTVYLQMNSLQPEDTAVYYCAVLTWYFLLQYGYYQEGDYWGQGTQVTVSS | low polyreactivity
QVQLVESGVGLVQAGGSLRLSCAHSGRIFFKNTMGWYRQAPGKERELVAAITSSGSSTYYADSVKGRFTISRDNAMNTVYLQMNSLKPEDTAVYYCNADYGFSFYWYDFWGHGTQVTVSS | low polyreactivity
QDQLVESGGGLVQAGGTLRLRCAATGSTVYPTYAMGWYRQAPGKEWELVATITGSGGYTYYADSVKGRFTISRDNAKNTVYLQINSLKPEDTAVYYCAADRWYSRYTRYGYRGQGTQVTVSS | low polyreactivity
QVQHVESGGGLVQAGGSLRLSCAASGSTFGKNTRGWSRQAPGKERELVAAISSRGGSTYYADSGKGRFTISRDNAKNTVYLQMNSLKPEDTAVYYCAAYSVSLGYDYWGQGTQVTVST | high polyreactivity
QVQLVESGGGLVQAGGSLRLSCAASGLIFAGYTMGWYRQAPGKERELVAAISISGGSTYYADSVKGRFTISRDNAKNTVYLQMNSLKPEDTAVYYCASKRRSWPPTYYYWGQGTQVTVSS | high polyreactivity
QVQLVESRGGLVQAGGSLRLSCAASGRIFSWYSMGWYRQPPGTERELVAGISWIGGSTYYADSVKGRFTFSRDNAKNTVYLQMISLKPEDTAVYYCNAEYFGEYRDYGYWGQGTQVTVSS | low polyreactivity
QVQLVESGGGLVQAGGSLRLSCAASGRIFPEYAMGWYRQAPGKERELVAAISSGDNTTYADSVKGRFTISRDNAKNTVYLQMNSLIPEDTAVYYCNAGSCTTGQGGPIIEYGYWGQGTQVTVSS | low polyreactivity

Sequence | polyreactivity (PSR sort gate)
QVQLVESGGGLVQAGGSLRLSCAASGRIFNWYAMGWYRKAPGKERELVAAISTDGSTYYADSVKGRFTISRDNAKNTVFLQMNSLKPEDTAVYYCAAVPGYTHLWGGPFDYWGQGTQVTVSS | low polyreactivity
QVQLVESDGGIVQAGGSLRLTCAASGIIFGYYVMGWYRQEPGKEGELVASITSGGSTNYADSVKGRFTISRDNAKNTVYLQMNSLKPEDTAVYYCAAEERTDTIACWRYPHDYWGQGTQVTVSS | low polyreactivity
QVQLVESGGGLVQAGGRLRLSCAASGSTFSRYAMGWYRQAPGKERELVAAISWSGGITYYADSVKGRFTISRDNAKNTVYLQMNSLKPEDTAVYYCAARSRSWSGERGYWGQGTQVTVSS | high polyreactivity
QVQLVESGGGLVQAGGSLRLSCAASGSIFDIYAMGWYRQAPGKERELVAAISWNGGDTTYADSVKGRFTISRDNEKNTVYLQMNSLKPEYTAVYYCAADLGYWVADYYWGQGTQVTVSS | high polyreactivity
QVQLVESGGGLVQAGGSLRLSCAASGFIFWYNAMGWYRPAPGKEREFVAAISSGGSTTYADSVKGRFTISRDNAKNTVYLQMNSLKPEDTAVYYCAAGSYDYDYWGQGTQVTVSS | low polyreactivity
QVQLVESGGGLVQAGGSLRLSCAASGGIFTYNAMGWYIQAPGKERELVAAITWNGGRTYYADSVKGRFTISRDTAKNTVYLQMNSLKPEDTAVYYCAARSPVKRQSRKQYYYWGQGTQVTVSS | high polyreactivity
QVQLVESGGGLVQAGGSLRLSCAASGNIFYNGMGWYRQAPGKERELVAAIRGSGGRTYADSVKGRFTISRDNAKNTVYLQMNSLKPEDTAVYYCATRRWYAYGVYYWGQGTQVTVSS | high polyreactivity
QVQLVESGGGLVQAGGSLRLSCAASGITFYYYTMGWYRQAPGKERELVAGITYRGGRTYYADSVKGRFTISRDNAKNTVYLQMNSLKPEDTAVYYCAADDLGWWFYSGGEDYYYWGQGTQVTVSS | low polyreactivity
QVQLVESGGGLVQAGGSLRLSCAASGFTFGRNAMGWYRQEPGKERELVATISKSGGSTYYADSVKGRFTISRDNAKNTVYVQMNSLKPEDTAVYYCADRSRRLPGDYWGQGTQVTVSS | low polyreactivity
QVQLVESGGGLVQAGGSLRLSCASSGSTLEVNAMGWYRQAPGKERELVAAITSGCSTNYADSVKGRFTISRDNAKNTVYLQMNSLKPEDTAVYYCNALAYYGMDYWGQGTQVTVSS | low polyreactivity
QVQLVESGGGLVQAGGSLRLSCAPSGIIFFAYAMGWYRQAPGKERELVAAISSSGGRTYYADSVKGRFTISRDNAKHTVYLQMNSLKPEETPVYYCNARWHGSFDYWGQGTQVTVSS | low polyreactivity
QVQLVESGAGLVQAGGRLRLSCAASGFIFTRYVMGWYRQAPGKERELVAAIRRGGSTYYADSVKGRFTISRDNAKNTVYLPMNSLKPEDTAVYYCAALYAYSLTARGMEYWGQGTQVTVSS | high polyreactivity
QVQLVESGGGLVQAGGSLRLSCAASGSTFARYAMGWYRHAPGKETELVAGIWNTGRTYYADSVKGRFTISRDNAKNTVYLQMNSLKPEDTAVYYCAALYNSPNVTYYYWGQGTQVTVSS | high polyreactivity
QVQLVESGGGLVQAGGSLRLSCAASGRIILVYAMGWYRQAPGKERELVAAISSGGSTYYADSVKGRLTISRDNAKNTVYLQMNSLKPEDTAVYYCAARTAVGPIRSYWYDYWGQGTQVTVSS | low polyreactivity
QVQLVESGGGLVQAGGSLRLSCAASGSTVRRNTMGWYRQAPGKERELVAGISSSGGSTYYADSVKGRFTISRDNAKNTVYLQINSLKPEDTAVYYCAARFYVSYVGYNYWGQGTQVTVSS | high polyreactivity
QVQLVESGGGLVQAGGSLRLSSAASGSIFWPNTMGWYRPAPGKERELVAGISFGGGSTYYADSVKGRFTISRDNAKNTVYLQMNRLKPEDTAVYYCNGDDPGYAGPWYWFKYDYWGQGTQVTVSS | low polyreactivity
QVQLVESGGGLVQAGGSLRLSCAASGSTFEVYAMGWYRQAPGKERELVAVINVSDGSTYYADSVKGRFTISRDNAKNTVYLQMNSLKPEDTAVYYCAAYLYNRPYQLTGYYDGYGYWGQGTQVTVSS | low polyreactivity
QVQLVESGGGLVQAGGSLRLSCAASGSIFWSYAMGWYRQAPGKERELVAAITWSGGNTYADSVKGRFTISRDNAKNTVYLQMNSLTPEDTAVYYCAAYPAHGTKWYVYPSHDDYWGQGTQVNVSS | low polyreactivity
QVQLVESGGGLVQAGGSLRLISAASGSTFRHYALGWNRQAPGKERELVAAISSTGGSTYYADSVKGRFTISRDNAKNTVYLQMNSLKPEDTAVFYCAARRLYWGQGTQVTVSS | high polyreactivity
QVQLVESGGGLVQAGGSLRLSCADSGSTFQANAMGWYRQAPGKERELVATISNDGSTKYADSVKGRFTISRDNAKNTVYLQMNSLKPEDTALYYCAADSARHGRDTYQPEYRNDYWGQGTQVTVSS | low polyreactivity
